The results in this text go back to the supplement of paper PMC7125110.

First the molecules themselves.
B1: glmS ribozyme (parent)
chain: AUAAAAGCGCCAGAACUACAGAAAUGUAGUUGACGAGGAGGAGGUUUAUCGAAUUUUCGGCGGAUGCCUCCAAA

What all share (conditions): with glucosamine-6-phosphate
In data set [1] the parent is B1. Kind of data set: self-cleavage kobs at 640 uM GlcN6P; higher = faster cleavage; RNA array. In a few lines: (§1)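 Tiles bearing barcoded ribozyme variants, transcribed in situ by E. coli RNA polymerase on sequenced MiSeq chips, were imaged over ~14 h at 37 °C using a hybridised Cy3 probe. Glucosamine-6-phosphate was supplied at 40 μM to 10 mM in HEPES/KCl/Mg(OAc)2 buffer. kobs came from one- or two-exponential decay fits to normalised per-tile medians, and weighted Michaelis–Menten fits then provided kcat and KM.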

Data set [2] covers variants of B1. Kind of data set: self-cleavage kobs at 2500 uM GlcN6P; higher = faster cleavage; RNA array. A digest of the protocol: as §1
Variants of B1 are the subject of data set [3]. In words: self-cleavage kobs at 10000 uM GlcN6P; higher = faster cleavage; RNA array. In a few lines: as §1

± gives the standard error. This sample holds only a part of the variants without activity.

As for A15C C16G G43U U56C A64U C68A, in data set [1], the “self-cleavage kobs at 640 uM GlcN6P” value was below 1e-05 s⁻¹.
A12C G32C U57C C58U: the “self-cleavage kobs at 640 uM GlcN6P” value in data set [1] is below 1e-05 s⁻¹. For the same variant, the “self-cleavage kobs at 2500 uM GlcN6P” value in data set [2] was below 1e-05 s⁻¹.
For A6G A42C C58U, in data set [1], the “self-cleavage kobs at 640 uM GlcN6P” value was below 1e-05 s⁻¹. For the same variant, the “self-cleavage kobs at 2500 uM GlcN6P” value in data set [2] was below 1e-05 s⁻¹.
Regarding G9U U30C U65G C70U, in data set [1], the “self-cleavage kobs at 640 uM GlcN6P” value was below 1e-05 s⁻¹.
As to C10G C11A A39U, the “self-cleavage kobs at 640 uM GlcN6P” value in data set [1] was below 1e-05 s⁻¹. In addition, in data set [2], the “self-cleavage kobs at 2500 uM GlcN6P” value was below 1e-05 s⁻¹.
For A36G G37C U46C, in data set [1], the “self-cleavage kobs at 640 uM GlcN6P” value is below 1e-05 s⁻¹. Further, in data set [2], the “self-cleavage kobs at 2500 uM GlcN6P” value was below 1e-05 s⁻¹.
On to A36C G44U C61U C67U, for which the “self-cleavage kobs at 640 uM GlcN6P” value in data set [1] was below 1e-05 s⁻¹. In addition, the “self-cleavage kobs at 2500 uM GlcN6P” value in data set [2] is below 1e-05 s⁻¹.
Regarding A12U G35C C70U, the “self-cleavage kobs at 640 uM GlcN6P” value in data set [1] is below 1e-05 s⁻¹. Further, the “self-cleavage kobs at 2500 uM GlcN6P” value in data set [2] was below 1e-05 s⁻¹.
Take G13A A14C A42G C70U: the “self-cleavage kobs at 640 uM GlcN6P” value in data set [1] turned out to be 4.53e-05 ± 1.8e-05 s⁻¹. Besides, the “self-cleavage kobs at 2500 uM GlcN6P” value in data set [2] was found to be 9.61e-05 ± 1.4e-05 s⁻¹.
Turning to U49G C50G G63C U69C, the “self-cleavage kobs at 640 uM GlcN6P” value in data set [1] is 0.00018 ± 4.2e-05 s⁻¹.
On the same count and under the same terms, in the case of G35C A48G A53U U69C it was below 1e-05 s⁻¹.
Consider C34G U45A U57C, for which the “self-cleavage kobs at 640 uM GlcN6P” value in data set [1] is below 1e-05 s⁻¹.
In the case of A52G G66A, the “self-cleavage kobs at 640 uM GlcN6P” value in data set [1] was found to be 0.000162 ± 3e-05 s⁻¹. Also, the “self-cleavage kobs at 2500 uM GlcN6P” value in data set [2] came out at 0.000203 ± 4.6e-05 s⁻¹. Also, the “self-cleavage kobs at 10000 uM GlcN6P” value in data set [3] amounted to 0.000481 ± 0.00017 s⁻¹.
With C8G U57G G59A, the “self-cleavage kobs at 640 uM GlcN6P” value in data set [1] was below 1e-05 s⁻¹. The “self-cleavage kobs at 2500 uM GlcN6P” value in data set [2] is below 1e-05 s⁻¹.
C8A C11A G44A: in data set [1], the “self-cleavage kobs at 640 uM GlcN6P” value was below 1e-05 s⁻¹.
Same read-out and setting: as for A36U U46C C50U C58U G59C C67A, the figure is below 1e-05 s⁻¹.
For A39U A42C U45G, in data set [2], the “self-cleavage kobs at 2500 uM GlcN6P” value is 0.000613 ± 0.00019 s⁻¹.
Take A14G G38U G66A: the “self-cleavage kobs at 640 uM GlcN6P” value in data set [1] is below 1e-05 s⁻¹.
Regarding A42G G44C C58A C68U, the “self-cleavage kobs at 2500 uM GlcN6P” value in data set [2] is below 1e-05 s⁻¹.
As to G35C G44C U45C A48G, the “self-cleavage kobs at 640 uM GlcN6P” value in data set [1] is below 1e-05 s⁻¹. For the same variant, the “self-cleavage kobs at 2500 uM GlcN6P” value in data set [2] was below 1e-05 s⁻¹.
Regarding A14G A36C G40C G51C, the “self-cleavage kobs at 640 uM GlcN6P” value in data set [1] was below 1e-05 s⁻¹.
Consider A33G G43U G59U A64G, for which the “self-cleavage kobs at 640 uM GlcN6P” value in data set [1] was below 1e-05 s⁻¹. In addition, the “self-cleavage kobs at 2500 uM GlcN6P” value in data set [2] was below 1e-05 s⁻¹.
For U30C G37U G44C C58U C67U, in data set [1], the “self-cleavage kobs at 640 uM GlcN6P” value is below 1e-05 s⁻¹.
Take G9U C19A G62U G63U: the “self-cleavage kobs at 640 uM GlcN6P” value in data set [1] was below 1e-05 s⁻¹.
In the case of A36U A52U, the “self-cleavage kobs at 640 uM GlcN6P” value in data set [1] was below 1e-05 s⁻¹. In data set [2], the “self-cleavage kobs at 2500 uM GlcN6P” value was below 1e-05 s⁻¹.
With U31C G66A C68A U69G, the “self-cleavage kobs at 640 uM GlcN6P” value in data set [1] worked out at 7.97e-05 ± 4e-05 s⁻¹. Also, the “self-cleavage kobs at 2500 uM GlcN6P” value in data set [2] was 4.91e-05 ± 1.6e-05 s⁻¹.
For A42C U49G C58A, in that order: below 1e-05 s⁻¹ and below 1e-05 s⁻¹.
With G9C A15U G26U G63C, the “self-cleavage kobs at 640 uM GlcN6P” value in data set [1] was below 1e-05 s⁻¹.
Consider U45G U46G U55C G63A, for which, in data set [1], the “self-cleavage kobs at 640 uM GlcN6P” value is below 1e-05 s⁻¹. Moreover, the “self-cleavage kobs at 2500 uM GlcN6P” value in data set [2] is below 1e-05 s⁻¹.
Regarding G9U C10G G13C A48C C50U, the “self-cleavage kobs at 640 uM GlcN6P” value in data set [1] was below 1e-05 s⁻¹. Moreover, the “self-cleavage kobs at 2500 uM GlcN6P” value in data set [2] was below 1e-05 s⁻¹.
As for G38U G41A U47C, in data set [1], the “self-cleavage kobs at 640 uM GlcN6P” value is below 1e-05 s⁻¹. Besides, in data set [2], the “self-cleavage kobs at 2500 uM GlcN6P” value is below 1e-05 s⁻¹.
As to C61G C70G C71G, the “self-cleavage kobs at 640 uM GlcN6P” value in data set [1] turned out to be 0.000223 ± 8.8e-05 s⁻¹. In data set [2], the “self-cleavage kobs at 2500 uM GlcN6P” value was 8.65e-05 ± 2.4e-05 s⁻¹.
For G44A U45G U49A C50G, in that order: below 1e-05 s⁻¹ and below 1e-05 s⁻¹.
